The values that follow come from PMC13161473 (2025).

The Kd is the concentration at which binding is half-saturated.

Series [1] is described as follows: Ca2+ release assay, Daoy cells. The settings on record: glycan lost; control: Siglec-15-flag (wild type).
A short description of series [2]: plasma membrane Siglec-15 level. Conditions: glycan lost; control: Siglec-15-flag (wild type).
Series [3] in a line: immunostaining flag/lamp1, Pearson's correlation. The settings on record: glycan lost; control: Siglec-15-flag (wild type).
Series [4] concerns the target CI-MPR used for biolayer interferometry (UniProt P11717 41-2491). Briefly: BLI. In general terms: Biolayer interferometry detects binding as a change in optical thickness at a sensor tip.
Series [5] addresses T1, recombinant human TRPML1 E1 domain (human).
T1 chain: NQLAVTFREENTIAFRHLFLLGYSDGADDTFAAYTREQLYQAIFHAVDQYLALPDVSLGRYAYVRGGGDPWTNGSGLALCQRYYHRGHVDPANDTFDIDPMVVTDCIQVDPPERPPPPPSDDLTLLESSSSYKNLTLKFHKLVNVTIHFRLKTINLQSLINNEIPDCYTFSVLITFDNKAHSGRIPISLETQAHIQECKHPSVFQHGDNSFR
Briefly: BLI.

B1: Siglec-15: N172Q (protein)
parent chain: MEKSIWLLACLAWVLPTGSFVRTKIDTTENLLNTEVHSSPAQRWSMQVPPEVSAEAGDAAVLPCTFTHPHRHYDGPLTAIWRAGEPYAGPQVFRCAAARGSELCQTALSLHGRFRLLGNPRRNDLSLRVERLALADDRRYFCRVEFAGDVHDRYESRHGVRLHVTAAPRIVNISVLPSPAHAFRALCTAEGEPPPALAWSGPALGNSLAAVRSPREGHGHLVTAELPALTHDGRYTCTAANSLGRSEASVYLFRFHGASGASTVALLLGALGFKALLLLGVLAARAARRRPEHLDTPDTPPRSQAQESNYENLSQMNPRSPPATMCSP
As for B1, in series [1], the “other: lysosomal Ca2+ release” value is listed as “decreases”. Further, the localisation_or_trafficking entry in series [2] is “no change”; in series [3], “decreases”.

B2: recombinant Siglec-15-N (263 AAs) (domain or fragment)
chain: FVRTKIDTTENLLNTEVHSSPAQRWSMQVPPEVSAEAGDAAVLPCTFTHPHRHYDGPLTAIWRAGEPYAGPQVFRCAAARGSELCQTALSLHGRFRLLGNPRRNDLSLRVERLALADDRRYFCRVEFAGDVHDRYESRHGVRLHVTAAPRIVNISVLPSPAHAFRALCTAEGEPPPALAWSGPALGNSLAAVRSPREGHGHLVTAELPALTHDGRYTCTAANSLGRSEASVYLFRFHGASGAST
With B2, the Kd came out at 1.04 nM in series [4] and 0.499 nM in series [5].
